# Results as given in PMC5830531.
# What was measured:
# Experiment in all cases: EMSA
# [1] = system: MBP-A3H m1 monomer (Homo sapiens (haplotype II)); settings: EMSA: 50 mM HEPES pH 7.5, 250 mM NaCl, 1 mM DTT, 2.5 mM EDTA, 10% glycerol, on ice 10 min, protein up to 8 uM, 8% native PAGE
# [2] = system: MBP-A3H m1+W115A/C116S monomer (Homo sapiens (haplotype II)); settings: EMSA: 50 mM HEPES pH 7.5, 250 mM NaCl, 1 mM DTT, 2.5 mM EDTA, 10% glycerol, on ice 10 min, protein up to 8 uM, 8% native PAGE
# [3] = system: MBP-A3H m1+H114A monomer (Homo sapiens (haplotype II)); settings: EMSA: 50 mM HEPES pH 7.5, 250 mM NaCl, 1 mM DTT, 2.5 mM EDTA, 10% glycerol; on ice 10 min; protein up to 8 uM; 1 nM RNA or 10 nM DNA; 8% native PAGE; n=3 …
# [4] = smeared bands, approximate, 1 nM RNA or 10 nM …, n=3, Table
substance,measurement,setting,value
8 nt ssDNA,Kd,[1]; [4],983 nM
same,Kd,[2]; [4],2960 nM
13 nt ssDNA,Kd,"[1]; approximate estimate, monomer assigned from the monomer comparison, 1 nM RNA or 10 nM DNA, n=3 …",272 nM
same,Kd,"[2]; approximate estimate, 1 nM RNA or 10 nM DNA, n=3 …",497 nM
50 nt ssRNA,Kd,"[1]; 1 nM RNA or 10 nM DNA, n=3 …",8 nM
same,Kd,"[2]; 1 nM RNA or 10 nM DNA, n=3 …",12 nM
same,Kd,[3],34 nM
